Experiments:
Details in all cases: modification not given
[1] = molecular target: Melanocortin receptor 1 (Homo sapiens), Q01726; experiment: 125I-NDP-α-MSH competition binding (membrane filtration)
[2] = molecular target: Melanocortin receptor 5 (Homo sapiens), P33032; experiment: competition
[3] = molecular target: Melanocortin receptor 4 (Homo sapiens), P32245; experiment: competition
[4] = molecular target: Melanocortin receptor 3 (Homo sapiens), P41968; experiment: competition
Sequence of Melanocortin receptor 3 (Homo sapiens), P41968 (P41968 whole entry): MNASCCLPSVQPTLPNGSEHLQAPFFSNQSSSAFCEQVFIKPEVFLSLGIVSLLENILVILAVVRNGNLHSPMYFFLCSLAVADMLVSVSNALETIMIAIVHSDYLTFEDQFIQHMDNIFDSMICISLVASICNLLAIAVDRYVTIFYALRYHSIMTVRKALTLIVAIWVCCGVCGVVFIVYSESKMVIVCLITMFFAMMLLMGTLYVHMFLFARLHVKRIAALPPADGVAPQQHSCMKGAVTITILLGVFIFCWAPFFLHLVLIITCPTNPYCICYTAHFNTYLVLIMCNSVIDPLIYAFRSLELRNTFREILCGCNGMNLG

Sequence of Melanocortin receptor 4 (Homo sapiens), P32245 (P32245 whole entry): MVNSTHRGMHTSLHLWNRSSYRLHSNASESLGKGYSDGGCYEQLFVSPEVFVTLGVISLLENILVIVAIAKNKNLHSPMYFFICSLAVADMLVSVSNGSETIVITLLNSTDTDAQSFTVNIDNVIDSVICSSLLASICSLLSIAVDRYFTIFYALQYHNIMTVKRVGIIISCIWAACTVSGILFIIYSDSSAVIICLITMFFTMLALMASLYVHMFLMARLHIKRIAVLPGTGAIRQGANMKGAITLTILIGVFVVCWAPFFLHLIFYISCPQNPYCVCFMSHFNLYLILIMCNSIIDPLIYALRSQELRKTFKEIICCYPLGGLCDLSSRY
Sequence of Melanocortin receptor 5 (Homo sapiens), P33032 (P33032 whole entry): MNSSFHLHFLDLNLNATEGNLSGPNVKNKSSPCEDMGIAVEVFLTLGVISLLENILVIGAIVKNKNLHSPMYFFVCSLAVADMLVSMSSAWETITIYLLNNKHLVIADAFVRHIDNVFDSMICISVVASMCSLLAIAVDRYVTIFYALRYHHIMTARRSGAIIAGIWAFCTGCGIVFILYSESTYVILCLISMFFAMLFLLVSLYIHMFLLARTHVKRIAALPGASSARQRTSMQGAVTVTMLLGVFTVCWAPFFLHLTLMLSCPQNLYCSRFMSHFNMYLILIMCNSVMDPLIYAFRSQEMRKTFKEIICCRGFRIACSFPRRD
Sequence of Melanocortin receptor 1 (Homo sapiens), Q01726 (Q01726 whole entry): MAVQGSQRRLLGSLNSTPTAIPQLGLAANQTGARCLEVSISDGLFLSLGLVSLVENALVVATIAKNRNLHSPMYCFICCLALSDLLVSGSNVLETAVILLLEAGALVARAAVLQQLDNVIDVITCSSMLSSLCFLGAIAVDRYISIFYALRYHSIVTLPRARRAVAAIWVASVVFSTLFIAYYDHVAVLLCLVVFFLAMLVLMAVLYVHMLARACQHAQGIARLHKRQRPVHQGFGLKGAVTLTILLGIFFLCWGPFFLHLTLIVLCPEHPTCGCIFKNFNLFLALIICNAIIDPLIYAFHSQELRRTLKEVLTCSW

Ki [1]: 0.09 nM
Ki [2]: 46 nM
Ki [3]: 1.2 nM
Ki [4]: 11.1 nM
Binder: SYSMEHFRWGKPVGKKRRPVKVYPNGAEDESAEAFPLEF [ACTH, P01189]

Reference: PMC4604100, “Melanocortin agonists stimulate lipolysis in human adipose tissue explants but not in adipocytes” (BMC Research Notes, 2015)
